Broadly, the Km is the concentration of substrate that gives half-maximal velocity. Broadly, the kcat is the number of substrate molecules converted per active site and unit of time at saturation. As usually defined, the kcat/Km is the turnover number divided by the Michaelis constant.

Substrate in the data set: N=C(N)NCCCC(NC(=O)c1ccccc1)C(=O)Nc1ccc([N+](=O)[O-])cc1
As to the kind of experiment: purified protein. To be noted: 20 mM TRIS-HCl, 10 mM CaCl2, pH 8.0, 24°C.

B1: AaET (Aedes aegypti) (protein)
chain: IVGGFQIDIAEVPHQVSLQRSGRHFCGGSIISPRWVLTAAHCTTNTDPAAYTIRAGSTDRTNGGIIVKVKSVIPHPQYNGDTYNYDFSLLELDESIGFSRSIEAIALPEASETVADGAMCTVSGWGDTKNVFEMNTLLRAVNVPSYNQAECAAALVNVVPVTEQMICAGYAAGGKDSCQGDSGGPLVSGDKLVGVVSWGKGCALPNLPGVYARVSTVRQWIREVSEV
Take B1: where the note is “20 nM enzyme”, the Km turned out to be 63.0 ± 1.3 µM, the kcat is 2.03 s⁻¹ and the kcat/Km turned out to be 32300 M⁻¹ s⁻¹.

B2: AaSPVII (Aedes aegypti) (protein)
chain: VVGGYEVDVKDIPFQVSLQNTYGHFCGGSIISERWVLTAGHCASPRDHGLKVRVGSSQHASGGQLYKVAKIHQHPQYNPSTIDYDFCLLELEKAITFSEVSQSVDLPKLNDPVQDGTLLQVSGWGYTQNPSESRDVLRATNVPAVSQKECSRAYQGTNAVTDRMVCAGYKEGGKDSCQGDSGGPLVEGNTLVGVVSWGVGCAQAGYPGVYSRVAAVRDWVAEVSGV
For the protein B2, for the setting “50 nM enzyme”, the Km worked out at 19.2 ± 1.0 µM, the turnover number (kcat) was determined as 0.35 s⁻¹ and the catalytic efficiency (kcat/Km) was 18500 M⁻¹ s⁻¹.

The values are drawn from article PMC3162888.
